B1: OsP5CR P1 probe (dsDNA)
DNA 1: CAGAGGGCATTCTCCCTAATAAGGCAGATACCTCCG
DNA 2: CGGAGGTATCTGCCTTATTAGGGAGAATGCCCTCTG
B2: OsP5CR P2 probe (dsDNA)
DNA 1: CGACGAATCCATTCATATATTTGTAGGGGCAGCGG
DNA 2: CCGCTGCCCCTACAAATATATGAATGGATTCGTCG

Key:
His-OsMADS25 [1] = biological target: T1, His-OsMADS25 (Oryza sativa, UniProt Q84NC5 1-227); experiment: EMSA; 5 mM Mg2+; 10 mM Tris pH 7.5, 50 mM KCl, 1 mM DTT, 2.5% glycerol, 5 mM MgCl2, 0.05% NP-40, 50 ng/ul poly(dI-dC), 30 ng protein, 400 fmol probe in 20 ul, 25 C 20 min (final values calculated from stocks); settings: protein: recombinant; tags: His (pET32a fusion); chain copies: 2; label: biotin 3' end; blunt
His-OsMADS25 [2] = biological target: T1, His-OsMADS25; experiment: EMSA; 5 mM Mg2+; competition stated to confirm specificity; 10 mM Tris pH 7.5, 50 mM KCl, 1 mM DTT, 2.5% glycerol, 5 mM MgCl2, 0.05% NP-40, 50 ng/ul poly(dI-dC), 30 ng protein, 400 fmol probe in 20 ul, 25 C 20 min (final values calculated from stocks); settings: protein: recombinant; tags: His (pET32a fusion); chain copies: 2; label: biotin 3' end; blunt

T1 sequence (Q84NC5 whole entry, the tested form may be a part): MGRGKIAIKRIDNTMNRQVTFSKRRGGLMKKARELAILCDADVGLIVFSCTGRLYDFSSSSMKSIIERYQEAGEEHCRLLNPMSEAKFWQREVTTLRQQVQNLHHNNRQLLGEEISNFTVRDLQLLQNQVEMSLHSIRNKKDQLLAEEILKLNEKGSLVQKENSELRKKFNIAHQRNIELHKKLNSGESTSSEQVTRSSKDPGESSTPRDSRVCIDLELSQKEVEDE

| Binder | binding result (His-OsMADS25 [1]) | binding result (His-OsMADS25 [2]) |
| --- | --- | --- |
| B1 | no binding |  |
| B2 |  | binds |

From publication PMC6197697, “Rice transcription factor OsMADS25 modulates root growth and confers salinity tolerance via the ABA–mediated regulatory pathway and ROS scavenging”
